± gives the uncertainty stated by the source.

The values that follow come from the supplement of paper PMC7877785.

The nature of this series: self-splicing fitness, log relative to wild type (ln ratio); higher = more splicing; Tetrahymena group I intron in knt gene, E. coli kanamycin selection, DiMSum; sequences stand for … in CUCUCU…GGAGGGAAAAGUUAUCAGGCAUGCACCUGGUAGCUAGUCUUUAAACCAAUAGAUUGCAUCGGUUUAAAAGGCAAGACCGUCAAAUUGCGGGAAAGGGGUCAACAGCCGUUCAGUACCAAGUCUCAGGGGAAACUUUGAGAUGGCCUUGCAAAGGGUAUGGUAAUAAGCUGACGGACAUGGUCCUAACCACGCAGCCAAGUCCUAAGUCAACAGAUCUUCUGUUGAUAUGGAUGCAGUUCACAGACUAAAUGUCGGUCGGGGAAGAUGUAUUCUUCUCAUAAGAUAUAGUCGGACCUCUCCUUAAUGGGAGCUAGCGGAUGAAGUGAUGCAACACUGGAGCCGCUGGGAACUAAUUUGUAUGCGAAAGUAUAUUGAUUAGUUUUGGAGUACUCGUGGUCG
Summed up: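 Colonies from six replicate transformations of E. coli BL21(DE3) were pooled and amplicon-sequenced on an Illumina HiSeq 2500. The library placed an intron with all eight P1ex-region nucleotides randomised inside the knt kanamycin-resistance gene on pET-22b(+), and cells grew overnight at 37°C or 30°C on LB agar with or without 25 μg/mL kanamycin (plus 100 μg/mL carbenicillin, 50 μM IPTG, 0.2% rhamnose). Fitness is the DiMSum error-weighted combination of wild-type-normalised replicate fold changes, kanamycin versus none.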

UUGGAGCAAUAUUACGUGUG: the “self-splicing fitness (ln)” value is, setting by setting: (30 °C) -3.71 ± 0.2; (37 °C) -2.38 ± 0.14.

Regarding UUGGAGCAAUAUUACGUUAA, the “self-splicing fitness (ln)” value reads like this: (30 °C) -2.09 ± 0.25; (37 °C) -1.91 ± 0.25.

Regarding UUGGAGCAAUAUUACGUUCA, the “self-splicing fitness (ln)” value (30 °C) is -2.45 ± 0.4 and the “self-splicing fitness (ln)” value (37 °C) was -1 ± 0.31.

As for UUGGAGCAAUAUUACGUUGA, the “self-splicing fitness (ln)” value by setting is: (30 °C) -3.57 ± 0.3; (37 °C) -0.895 ± 0.26.

Regarding UUGGAGCAAUAUUACGUUGC, the “self-splicing fitness (ln)” value (37 °C) was -1.44 ± 0.45.

As to UUGUAGCAAUAUUACGACCA, the “self-splicing fitness (ln)” value (30 °C) was -0.463 ± 0.16 and the “self-splicing fitness (ln)” value (37 °C) is -0.51 ± 0.17.

For the sequence UUGUAGCAAUAUUACGAGGC, the “self-splicing fitness (ln)” value is, setting by setting: (30 °C) -3.07 ± 0.27; (37 °C) -1.77 ± 0.31.

As to UUGUAGCAAUAUUACGAGUU, the “self-splicing fitness (ln)” value (30 °C) was -3.22 ± 0.25 and the “self-splicing fitness (ln)” value (37 °C) was -2.61 ± 0.26.

Take UUGUAGCAAUAUUACGCCCA: the “self-splicing fitness (ln)” value is 0.762 ± 0.34 (30 °C) and -0.0943 ± 0.38 (37 °C).

Consider UUGUAGCAAUAUUACGCGUA, for which the “self-splicing fitness (ln)” value reads like this: (30 °C) -1.31 ± 0.18; (37 °C) -0.742 ± 0.22.

For the sequence UUGUAGCAAUAUUACGCGUG, the “self-splicing fitness (ln)” value was -0.196 ± 0.079 (30 °C) and -0.498 ± 0.1 (37 °C).

As to UUGUAGCAAUAUUACGGAUU, the “self-splicing fitness (ln)” value (37 °C) is -2 ± 0.34.

On to UUGUAGCAAUAUUACGGCAU, for which the “self-splicing fitness (ln)” value was -0.835 ± 0.096 (30 °C) and 0.641 ± 0.11 (37 °C).

UUGUAGCAAUAUUACGGCCA: the “self-splicing fitness (ln)” value is, setting by setting: (30 °C) -0.782 ± 0.2; (37 °C) 0.581 ± 0.28.

As for UUGUAGCAAUAUUACGGCUU, the “self-splicing fitness (ln)” value reads like this: (30 °C) -1.41 ± 0.12; (37 °C) 0.113 ± 0.14.

UUGUAGCAAUAUUACGGGAC: the “self-splicing fitness (ln)” value reads like this: (30 °C) -0.759 ± 0.16; (37 °C) -2.7 ± 0.36.

As to UUGUAGCAAUAUUACGGGGC, the “self-splicing fitness (ln)” value runs as follows: (30 °C) -3.56 ± 0.37; (37 °C) -3.67 ± 0.46.

For the sequence UUGUAGCAAUAUUACGUCCA, the “self-splicing fitness (ln)” value (30 °C) is -0.4 ± 0.13 and the “self-splicing fitness (ln)” value (37 °C) was -0.28 ± 0.14.

As for UUGUAGCAAUAUUACGUUCU, the “self-splicing fitness (ln)” value by setting is: (30 °C) -2.42 ± 0.15; (37 °C) -1.69 ± 0.2.

In the case of UUGUAGCAAUAUUACGUUGG, the “self-splicing fitness (ln)” value (30 °C) was -2.77 ± 0.18 and the “self-splicing fitness (ln)” value (37 °C) is -1.98 ± 0.21.

On to UUUAAGCAAUAUUACGAAAU, for which the “self-splicing fitness (ln)” value is, setting by setting: (30 °C) -2.95 ± 0.24; (37 °C) -1.04 ± 0.19.

Turning to UUUAAGCAAUAUUACGAACG, the “self-splicing fitness (ln)” value (30 °C) was -1.08 ± 0.18 and the “self-splicing fitness (ln)” value (37 °C) turned out to be 0.0714 ± 0.21.

With UUUAAGCAAUAUUACGAAGU, the “self-splicing fitness (ln)” value (37 °C) was -1.62 ± 0.45.

Take UUUAAGCAAUAUUACGAAUA: the “self-splicing fitness (ln)” value by setting is: (30 °C) -1.09 ± 0.21; (37 °C) -0.334 ± 0.22.

Take UUUAAGCAAUAUUACGACAU: the “self-splicing fitness (ln)” value is -1.45 ± 0.015 (30 °C) and -0.621 ± 0.034 (37 °C).

As for UUUAAGCAAUAUUACGACGC, the “self-splicing fitness (ln)” value was -3.48 ± 0.2 (30 °C) and -0.476 ± 0.16 (37 °C).

As to UUUAAGCAAUAUUACGAGGG, the “self-splicing fitness (ln)” value reads like this: (30 °C) -2.32 ± 0.19; (37 °C) -1.57 ± 0.23.

Regarding UUUAAGCAAUAUUACGCACG, the “self-splicing fitness (ln)” value was -0.565 ± 0.16 (30 °C) and -0.685 ± 0.22 (37 °C).

As for UUUAAGCAAUAUUACGCAUU, the “self-splicing fitness (ln)” value by setting is: (30 °C) -2.05 ± 0.17; (37 °C) -2.63 ± 0.24.

For UUUAAGCAAUAUUACGCUCG, the “self-splicing fitness (ln)” value runs as follows: (30 °C) -0.577 ± 0.095; (37 °C) 0.0454 ± 0.11.

Consider UUUAAGCAAUAUUACGGGCA, for which the “self-splicing fitness (ln)” value (30 °C) is -1.05 ± 0.12 and the “self-splicing fitness (ln)” value (37 °C) was -0.851 ± 0.14.

Take UUUAAGCAAUAUUACGGGUG: the “self-splicing fitness (ln)” value (30 °C) was -1.2 ± 0.13 and the “self-splicing fitness (ln)” value (37 °C) is -0.234 ± 0.12.

Regarding UUUAAGCAAUAUUACGGUAA, the “self-splicing fitness (ln)” value is, setting by setting: (30 °C) -1.08 ± 0.12; (37 °C) -1.01 ± 0.096.

For the sequence UUUAAGCAAUAUUACGGUAG, the “self-splicing fitness (ln)” value is -0.741 ± 0.17 (30 °C) and -0.971 ± 0.21 (37 °C).

Regarding UUUAAGCAAUAUUACGGUUA, the “self-splicing fitness (ln)” value was -1.35 ± 0.12 (30 °C) and -0.505 ± 0.1 (37 °C).

Take UUUAAGCAAUAUUACGUAAA: the “self-splicing fitness (ln)” value was -0.434 ± 0.1 (30 °C) and 0.519 ± 0.16 (37 °C).

Consider UUUAAGCAAUAUUACGUCGA, for which the “self-splicing fitness (ln)” value is, setting by setting: (30 °C) -0.771 ± 0.092; (37 °C) -0.225 ± 0.1.

As for UUUAAGCAAUAUUACGUCUA, the “self-splicing fitness (ln)” value was -0.606 ± 0.085 (30 °C) and -0.214 ± 0.1 (37 °C).
